This is an account of results in PMC11220838, “Factors affecting macromolecule orientations in thin films formed in cryo-EM” (Acta Crystallographica. Section D, Structural Biology, 2024).

“And” between values parts separate entries of the source, which are not always exact repeats. Equal values may be shown once.

The target of data set [1] is SARS-CoV-2 spike protein with C-terminal tag (SARS-CoV-2). Description: cryo-EM structure.
In data set [2] the target is T1, Human C-reactive protein (human), P02741.
T1 chain: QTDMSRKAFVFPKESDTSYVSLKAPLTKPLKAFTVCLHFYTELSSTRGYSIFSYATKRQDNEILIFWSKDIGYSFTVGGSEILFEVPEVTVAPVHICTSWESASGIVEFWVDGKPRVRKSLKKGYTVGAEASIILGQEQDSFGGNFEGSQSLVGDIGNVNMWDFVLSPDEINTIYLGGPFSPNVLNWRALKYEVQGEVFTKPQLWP
Description: cryo-EM structure; single-particle cryo-EM, plunge-frozen Quantifoil 1.2/1.3 grids, 20 mM Tris pH 8, 280 mM NaCl, 5 mM CaCl2, 0.03% NaN3; no additive or CTAB, SLS, Tween 20, Tween 80, A8-35; 20°C. As to conditions: remark: other sources report otherwise.

Data set [3] deals with the molecule itself. Nature of the data set: cryo-EM structure; single-particle cryo-EM, plunge-frozen Quantifoil 0.6/1 grids, 25 mM HEPES pH 7.4, 50 mM NaCl; no additive or CTAB; 4 or 20°C; D3 symmetry.

“SARS-CoV-2 spike protein with C-terminal tag (domain or fragment)” displayed a stoichiometry N in data set [1] of 3.

B1: Human C-reactive protein, P02741 19-224 (natural protein)
chain: T1 chain
On to B1, for which the stoichiometry N in data set [2] was 5 and 10.

B2: E. coli PaaZ (enzyme)
chain: QQLASFLSGTWQSGRGRSRLIHHAISGEALWEVTSEGLDMAAARQFAIEKGAPALRAMTFIERAAMLKAVAKHLLSEKERFYALSAQTGATRADSWVDIEGGIGTLFTYASLGSRELPDDTLWPEDELIPLSKEGGFAARHLLTSKSGVAVHINAFNFPCWGMLEKLAPTWLGGMPAIIKPATATAQLTQAMVKSIVDSGLVPEGAISLICGSAGDLLDHLDSQDVVTFTGSAATGQMLRVQPNIVAKSIPFTMEADSLNCCVLGEDVTPDQPEFALFIREVVREMTTKAGQKCTAIRRIIVPQALVNAVSDALVARLQKVVVGDPAQEGVKMGALVNAEQRADVQEKVNILLAAGCEIRLGGQADLSAAGAFFPPTLLYCPQPDETPAVHATEAFGPVATLMPAQNQRHALQLACAGGGSLAGTLVTADPQIARQFIADAARTHGRIQILNEESAKESTGHGSPLPQLVHGGPGRAGGGEELGGLRAVKHYMQRTAVQGSPTMLAAISKQWVRGAKVEEDRIHPFRKYFEELQPGDSLLTPRRTMTEADIVNFACLSGDHFYAHMDKIAAAESIFGERVVHGYFVLSAAAGLFVDAGVGPVIANYGLESLRFIEPVKPGDTIQVRLTCKRKTLKKQRSAEEKPTGVVEWAVEVFNQHQTPVALYSILTLVARQHGDFVD
notes: source: recombinantly overexpressed, purified as described in Sathyanarayanan et al. (2019)
For the molecule B2, the “stoichiometry N” value in data set [3] is 6.
